Patent US20120121583A1 (Genentech, published 2012)

B1: TW-301 (antibody, V domains shown)
VH: QSLEESGGGLVKPGASLTLTCTASGFTFNANYWICWVRQAPGKGLEWIACIYGGGNSGAYYASWATGRFTISRTSSTTVTLQMTSLTAADTATYFCARGPISRDLWGPGTLVTVSL
VL: DVVMTQTPASVSEPVGGTVTIKCQASQSIYSSLAWYQQKPGQPPKLLIYDAFDLASGVSSRFTGSGSGTQFTLTISDLECADAATYYCQSTDYGNSWDGNPFGGGTEVVVT
notes: also called Antibody 301; rabbit antibody 301
B2: TW-301chi (antibody, human IgG1, kappa, V domains shown)
VH: B1 VH
VL: DVVMTQTPASVSEPVGGTVTIKCQASQSIYSSLAWYQQKPGQPPKLLIYDAFDLASGVSSRFTGSGSGTQFTLTISDLECADAATYYCQSTDYGNSWDGNPFGGGTEVVVTR
notes: also called chimeric antibody 301
B3: TW-304chi (antibody, human IgG1, kappa, V domains shown)
VH: QSLEESGGDLVKPGASLTLTCKASGFSFSSTYYMCWVRQAPGKGLEWIGCIYVGSSGAPYYASWAKGRFTISKTSSTTVALQMTSLTPADTATYVCTRSVHFGDLWGPGTLVTVSS
VL: DVVMTQTPSPVSAAVGGTVTIKCQASQSIGNDLSWYQQKPGQRPKLLIYSVSTLASGVPSRFKGSGSGTEYSLTISDVQCADAATYYCQCIDYGNNYVGNTFGGGTEVVVKR
notes: also called chimeric antibody 304
B4: TW-305chi (antibody, human IgG1, kappa, V domains shown)
VH: QEQLVESGGGLVQPGGSLTLSCKASGFDFSTYYMSWVRQAPGKGLEWIGTVYVRQGTTYYASWLNGRFTISSDNAQNTVDLKMNSLTAADTATYFCAKGGYNYDDAFVIWGPGTLVTVSF
VL: AIEMTQTPFSVSAAVGGTVTINCQASQNIYSNLAWYQQKPGQPPKLLMYTASYLASGVPSRFKGSGSRTEYTLTISGVQCADAATYYCQTAYYNSRPDTVAFGGGTEVVVKR
notes: also called chimeric antibody 305; Antibody 305 (chimeric)

Legend:
[1] = target: T1, Human recombinant soluble TWEAK (human, UniProt O43508 99-249); experiment: cell-based or functional assay
T1 sequence: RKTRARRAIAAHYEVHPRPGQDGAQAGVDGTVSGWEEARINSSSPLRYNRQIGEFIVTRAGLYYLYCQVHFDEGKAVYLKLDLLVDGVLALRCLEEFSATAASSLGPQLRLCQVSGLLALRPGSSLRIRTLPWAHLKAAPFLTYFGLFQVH

[2] = target: Mouse soluble TWEAK (mouse) (UniProt O54907); experiment: competition ELISA: antibody pre-incubated with mouse soluble TWEAK 4 ng/ml, binding to coated mouse Fn14:Fc
[3] = target: T2, human Flag-tagged soluble TWEAK (amino acids 106-249) (human, UniProt O43508 106-249); experiment: competition ELISA: antibody pre-incubated with human Flag-TWEAK 2.5 ng/ml, binding to coated human Fn14:Fc
T2 construct: N-terminal placement here is only an order of listing; not shown: Flag tag
T2 sequence: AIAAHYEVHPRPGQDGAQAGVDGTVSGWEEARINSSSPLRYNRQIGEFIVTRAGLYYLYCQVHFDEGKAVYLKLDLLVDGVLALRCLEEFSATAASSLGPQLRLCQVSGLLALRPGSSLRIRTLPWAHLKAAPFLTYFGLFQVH
Procedure: 96-well Maxisorp® plates (Nunc) were coated with 100 μl 1 μg/ml human Fn14:Fc (extracellular domain of human Fn14 (amino acids 1-75) fused to Fc portion of human IgG1) in PBS per well for 1.5 h at room temperature and blocked with a solution of 5% FBS in PBS for 30 minutes at room temperature under shaking. […] Wells were filled with 100 μl of anti-FLAG-HRP detection antibody, diluted 1:5000 in blocking buffer, and incubated for 1 h at room temperature. After four more wash steps, the signal was developed by addition of 100 μl 3,3,5,5-Tetramethylbenzidine (TMB) solution for approximately ten minutes. The reaction was stopped by adding 100 μl of 1 N HCl, and absorbance measured at 450 nm (reference wavelength 620 nm).

[4] = target: T3, Biotinylated human soluble TWEAK (amino acids 99-249 of SEQ ID NO: 60) (human, UniProt O43508 99-249, biotinylated (sites not given)); experiment: Biacore SPR, biotinylated TWEAK on SA sensor, antibody 100 nM as analyte, 25 C; t1/2 = ln(2)/(60 x kd)
T3 construct: Immobilised on the streptavidin sensor in the Biacore half-life assay; also called Human TWEAK; soluble human TWEAK
T3 sequence: T1 sequence
Procedure: A Biacore 2000 instrument was used with a Biacore streptavidin coated sensor mounted into the system. The system buffer HBS-ET (10 mM HEPES pH 7.4, 150 mM NaCl, 1 mM EDTA, 0.05% Tween® 20) was used at a flow rate of 100 μl/min. The sample buffer was the system buffer. Biotinylated human soluble TWEAK (amino acids 99-249 of SEQ ID NO: 60) and biotinylated murine soluble TWEAK (amino acids 81-225 of SEQ ID NO: 61) was immobilized on different flow cells on the SA sensor at 150 RU each. The flow cell FC1 was used as a blank reference cell. Each antibody was injected into the system as an analyte at 100 nM at 100 μl/min for 2 min association time. The dissociation of the immune complexes were monitored for 5 min. The sensor surface was washed with HBS-ET for 10 seconds and regenerated using 2×2 minutes injections with 10 mM glycine pH 2.25. This procedure was done at 25° C. The kinetically rate limiting step of the complex dissociation phase in the interval [240 s-300 s] was taken to calculate the dissociation rate kd [1/s] (Biacore Evaluation Software 4.0). According to the equation t1/2 diss=ln(2)/(60×kd), the half-life of the immunocomplexes in minutes was calculated.

[5] = target: T4, Biotinylated TWEAK (Homo sapiens (Human), UniProt O43508 99-249, Biotinylated for capture on the streptavidin sensor; the site or sites of biotinylation are not stated. The active form is a soluble homotrimer; one protomer is given.); experiment: Biacore cross-blocking on immobilised biotinylated TWEAK; binding of antibody 2 after saturation with competitor antibody 1 TW-301chi (row), 100 nM each
T4 sequence: T1 sequence
Procedure: (§1) Because of the individual biochemical properties of the TWEAK protein another method had to be developed using TWEAK as ligand. Biotinylated TWEAK was immobilized on the streptavidin-coated chip surface and epitope coverage of consecutively injected antibodies (antibody 1) was measured. The aim was to detect the relative binding levels of a secondary antibody (antibody 2) in the presence of an already bound primary antibody. From these relative binding levels a quotient was calculated (Ab2/Ab1, molar ratio given in %, table 7).
(§2) 5 nM of biotinylated TWEAK was immobilized at 20 μl/min for 1 min on a streptavidin coated sensor flow cell. Primary and secondary mAbs were consecutively injected at 10 μl/min for 4 min into the system at 100 nM each until saturation of the respective TWEAK epitopes was achieved. As a reference an SA coated flow cell was used.
(§3) The system was washed with HBS-ET for 20 sec at 30 μl/min followed by two regeneration steps with 1 min at 30 μl/min 6 M GuadHCl and 100 mM HCl. […] The process was repeated by the immobilization of native biotinylated TWEAK protein (feed batch mode) on the same flow cell until the streptavidin sensor surface was completely saturated by biotinylated TWEAK.

[6] = target: T4, Biotinylated TWEAK; experiment: Biacore cross-blocking on immobilised biotinylated TWEAK; binding of antibody 2 after saturation with competitor antibody 1 TW-304chi (row), 100 nM each
Procedure: as §1, §2, §3

[7] = target: T4, Biotinylated TWEAK; experiment: Biacore cross-blocking on immobilised biotinylated TWEAK; binding of antibody 2 after saturation with competitor antibody 1 TW-305chi (row), 100 nM each
Procedure: as §1, §2, §3

| Binder | IL-8 Secretion IC50 [1] | IC50 [2] | IC50 [3] | t/2 diss [4] | MR % (Ab2/Ab1 molar ratio) [5] | MR % (Ab2/Ab1 molar ratio) [6] | MR % (Ab2/Ab1 molar ratio) [7] |
| --- | --- | --- | --- | --- | --- | --- | --- |
| B1 | 128 ng/mL | 4.7 ng/mL | 3.4 ng/mL | – | – | – | – |
| B2 | 121 ng/mL | 6.4 ng/mL | 2.8 ng/mL | 110 min | 0% | 0% | 0% |
| B3 | 122 ng/mL | – | 2.6 ng/mL | 37 min | 6% | 0% | 1% |
| B4 | 104 ng/mL | – | 2.6 ng/mL | 147 min | 9% | 3% | 0% |
